Our source for the protein production values is a protein production outcome set (Wang et al. 2014).
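Note: failed if final PepcDB status was selected cloned or expressed and not failed if soluble or beyond.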

The nature of this data set: label from the status in PepcDB records.
“MTFEIVFVLLSLLGMMAALIADKMRPGMVLFSVVVLFLCVGILTPKEMLEGFSNKGMITVALLFLVSEGIRQSGTLGQVIKKLLPQGKTTVFKAQLRILPSVAFISAFLNNTPVVVIFAPIIKHWAKSVKLPATKFLIPLSYVTILGGICTLIGTSTNLVVHGMILEAGYEGFTMFELGKVGIFIAIAGIIYLFIFSKRLLPDARPDTAVPDEEVEEGEKLHRVEAVLGARFPGINKKLSDFNFQRHYGAEVKEIKTRNGQRYVDHLEDVVLREGDTLVVMADDTFIPTWGESSVFVLLTNGNDPDTSGKKKRWLALILLVLMIVGATVGELPATKEMFPDIKLDMFFFVCITTIIMAWTNIFPARKYTKYISWDILITIACAFAISKAMVNSGVADCVAGFIIGLSDDYGPHVLLAILFVITNLFTELITNNAAAALAFPLALSISAQLGVSPTPFFVVICMAASASFSTPIGYQTNLIVQGIGNYKFTDFVRIGLPLNIITFLISVILIPLIWNF”: the protein production entry is “not failed”. For “MIKLIYKPLWLILLIFFSLKAIAEDHYPTAPSPFYYVSDYTKTLNQQEWRTLEDALINNRSKTSSQIIVVMIPSTDGEEIARYAHNLFNKWGIGRVKHNENNGVLLLIAKNDRKLFIATGRGLESALPDAIAATIIRHHITPYFKQNLYAEGIASGLSAIMAAINGEFAAYDEYQSSNNQTLDGFFFFLFAAFVIFMMFRPTRNSQYISRSNTKPFQQILRHSRYHHDTSRDLYRGGSGDSFGGGSSGGGGAGGSWLEHHHHHH” the value was “failed”; for “MEKIIVVKYRDVKLKSPILIGGLPGIGNVGKIAADYIVEKLNMVKIYDIFSEYLPPQVFINDDSEIHLVRNSIYYKKMRGKHDLLVLGGDFQGTTQEAQYELSYKMLELAKDMNVSEVYTLGGYSVGKIVERPRVLGAVTDKKLIPELEKNGVIFPKGEPGGGIVGSAGLILGLGMEIFKINGACLMGETSGYFADPKSAMEVLNVLQKQIGIKIDMSDIETRSKQIEQITGKMQEEFQNKQGKEDLGYFG”, “failed”.

As for “MKRRYSILIILLVAIFYRMITFRFKYLLGYDPYFHLAYIEEVNKVGKWINFLTFAGGPWGYQVKLFHPLGLWMTPLYLYKLLKVFGVSLTTTFKITPVIFGVLTVIFLYLSLLKLYDEKRAFFGGFFLAISYGHVFRSMANYYRGDNYMLFWYSVALLGISLALGIKKGKWKYKRLIFYTLPVLASGFSAIFWQAYYPIFAFLLSNALLLAVGAFILKKDKYLLDSIILILSTAFGVLLANYLGGIFGYGMLGYAKWLGKSVAKKLGLEFGYLKDVYLILHLKYLVPISLSFVLVLILLGFLTKDIRIRSLFLGIASFIGIIILFKRFEALKELSTGFGIFKEAPILETQPTSFKDLWAAFSLSFFLTPLFFIRFKKPRVEDFLTLGLIIPSVYMLKTWTRFLFIGSMAIAIMSGIGIVELYEAIKPRLNGKKALATGIITLVILPGVIAGLSFKEVCSLHPEMNEAWERALKWLKNNSNENDVILAWWDWGHFITYYARRSPIAQGGPSVGVALYLLGKLNENWAINLGVDYVIVSYYDFLKFGAILSTANLSKRYNIRGYGLVVLPLRASTGALIFENRGYRAIVRHDKSWNAVIIYNGQMIYPRKLYVEHKEGVQEIKPPESNSNTYLYVNLNYGYAIFMNGNAFNTTLVRLFITPEKPYKLVYSDGGLIKIFKLEHPNVKVERRESNVILNFENGTSLGLYFFLDNGTMVLSKWYNVKGKNEFIVPKVNASVARYVLKRGKKVVDRGVFRLSYN”, the protein production entry is “failed”.

Turning to “MASLRLPAQLVTRGNLIHHNSSSSSSGRLSWRRSLTPENTIPLFPSSSSSSLNRERSIVVPVTCSAAAVNLAPGTPVRPTSILVVGATGTLGRQIVRRALDEGYDVRCLVRPRPAPADFLRDWGATVVNADLSKPETIPATLVGIHTVIDCATGRPEEPIKTVDWEGKVALIQCAKAMGIQKYVFYSIHNCDKHPEVPLMEIKYCTEKFLQESGLNHITIRLCGFMQGLIGQYAVPILEEKSVWGTDAPTRVAYMDTQDIARLTLIALRNEKINGKLLTFAGPRAWTTQEVITLCERLAGQDANVTTVPVSVLRVTRQLTRFFQWTNDVADRLAFSEVLSSDTVFSAPMTETNSLLGVDQKDMVTLEKYLQDYFSNILKKLKDLKAQSKQSDIYF”, the protein production result was “failed”. Regarding “MDSNTFVSTNIKKERNVDSVLSKGKPVSILLMGTDTGELGRNWVGRTDSMILVIINPKTKKTLLMSIPRDSMVSIPGYEYTFPQKINAAYEYPANGKGHPETSIKTVEKWLNVPIDFYGIVNMEALEQITNKAGGISVKSPLTFTFSEDTAHDYGNNLYTFTKGSTKYKYYKNGSTLTKTSNIMNGAAALAFTRMRYNDPLGDYGRTLRQRLVFEAIAKKATVLIPQIVNKKFLNSISKQGKTDLTFNDMVTLASNYRKALKNIKSDSVQGTDYEYSGISYQVVASKEKQRVTNKIRKFLGLKKAKSGPLYASKVTNGVVILEHHHHHH”, the protein production result is on record as “failed”. For “MGMKDVFKRYLVFVIGLYFLAAGIVLIVRSALGTTPISSVNYVLSLNSPLSLGTCTFLINMLLILGQFWVIRKNKTRQDTIEILLQLPFSFIFSAFIDFNMALTSNLHPDNYGMSIALLLTGCMIQSIGVVLELKPKVAMMSAEAFVKYASRRYNKEFGKFKVCFDVTLVTLAVILSLLLSQCIEGVREGSLIAACITGYIVSFLNQKIMTRKTLYKLLPVLK” the value was “failed”; for “MLSLPPCRLAARRYRPLRQQNRGSSAVILYNAPSFFDCRFDCLANHRQRRWPRAGHPDRDDVMHTLEQLRAGKLCGARHLKLAENLTEFPPEIFSLKETLEVLDLTGNQLSRLPDGLAEFSKLRIIFCSENRFTELPEVLGRCPALTMVGFKANKIVTVPAASLPAGLRWLILTDNAVEQLPDELGQCGALQKLMLSGNRLRELPVTLANCQRLELVRIAANRLEALPHWLVRLPRLAWLAYAGNPFSDKQEQRLGQCASVADIPWDSLKVGELLGQGASGVIHRAELATPAGPRAVAVKCFKGAVTSDGLPRCELAVSLAAGRHPHLVGVEGRVGDHPSGIPALVMALIDPDFINLAGPPSLDSCTRDIYQADARFTPAALLAMVQGVASAALHLHGRGILHGDLYAHNMLHSLQEEGRLLLGDFGAASCYERTDGELAGLLERLEVRAFGCLLEELLARCAPCDDRLDALHALVDDCLAEVVAARPDFAEIAARLAAVAPVICAEPVLL”, “failed”. “MFPYFESVATASTEFHAIEPDPHMRRQAAEQANTQATPIHIESSPAEALPYYEDTFDVVITSMVFCTIPDIESAMSEITRVLKPGGELRFFEHVIDDGWRARLQSALAPLWKRLAGGCHLTRQTGTRLVADQSFDVVEIERLNLGITPIRPFVRGRLRKRSVSSTRLEHHHHHH”: the protein production entry is “failed”.

Regarding “MMVAVFWISFLLLAYIYFGYPVCIRLLASARPLPVNKSGAYQPKVSILIAAYNEAKDIEATLRNKLALDYPREQLEILVVSDESEDGTDEIVQAVAADAPFPVKLFRQVPRQGKTAGLNMLKQHAEGEILAFSDANSEWDQQALKALVSNFNDPAVGYVTGKMVYVNPEGALIGDGCSAYMKYENWLRAQETLVGSVVGVDGGIDAMRKELHSELNADQLPDFVQPLKVVEQGYRVVYEPGALLKEEALSDGGSEFSMRVRVSLRALWALKDMKQLMSPANDPVFAWQLISHKLLRYAAFAPMITLAIAALYLAPVKGLYALAAIGYGLFLYFAWAGYQKESRGQSLSTMYALPYYFVLLNLASFKAFVAFAKGEKKVVWNPRKG”, the protein production entry is listed as “failed”. Consider “MMAKLVVCIIDGMADPPPPAGGVTPLAAAHTPHCDTLARHSVAGLCHVIQPEAVPGSEAGLSALLCCEAAASIARGPVEALAQGDPVAPHETVWRLNLVSLGPRGNYYNPAPLLDAATETAARKMLDRALGTQGYSLLGGKGFRHLCAGTEPPVLRDGPQDVCGMTPDTGQADLNSYCPRLARAMTEANVLFRRSRMDLAVWPWGAGTMPDLPGFAETTGQTGALAGGVPLARGLALALGMTAPSIAGATGGIDTDLGAKTRAAIALAAGHDVVYLHVEAPDLHAHALDRVAKRRAIERIDAEVVGPLHMALPDATLLITCDHATDCATGRHMAIPVPFILHKPDGPQDGIATFSEAASARTGIRIDSAATLVRLALADLEHHHHHH”, for which the protein production entry is reported as “not failed”.
